This is an account of results in paper PMC7692894.

Series [1] has as its target milk-derived short digestion-resistant peptides with the mass <3 kDa. Briefly: SEC; milk peptide fraction <3 kDa (MP) run beside pepsin autoproteolysis peptides (PP); physiologically relevant conditions; area under the curve at 215 nm; details in Supplementary Information.
Test in series [2]: as above

With “milk-derived short digestion-resistant peptides with the mass <3 kDa”, in series [1], the stoichiometry N (in general, the number of molecules, sites or subunits per partner or assembly) is greater than 4. The “percent of the peptides aggregated” value in series [2] is on record as 43.5% of the peptides aggregated into larger complexes.
